The record followed here is paper PMC4552428, “Distinct Actin and Lipid Binding Sites in Ysc84 Are Required during Early Stages of Yeast Endocytosis” (PLoS ONE, 2015).

In the test the target is Rabbit skeletal muscle actin (rabbit, UniProt P68135 1-377). Kind of test: MST; microscale thermophoresis of Ysc84-Nt with monomeric (G-) actin; conditions not shown (S1 File). The settings on record: both partners purified.

B1: 6xHis tagged Ysc84-Nt (wild type, N-terminal YAB domain) (domain or fragment)
chain: MGINNPIPRSLKSETKKAAKVLRSFVKPNQVFGADQVIPPYVLKRAKGLAIITVLKAGFLFSGRAGSGVIVARLKDGTWSAPSAIAMAGAGAGGMVGVELTDFVFILNSEEAVRSFSEFGTITLGGNVSVSAGPLGRSAEAAASASTGGVSAVFAYSKSKGLFAGVSVEGSAILERREANRKFYGDNCTSKMILSGRVKVPPAADPLLRILESRAFNF
notes: The His tag was detected on this protein on PIP strips; no cleavage is described; also called Ysc84-Nt WT; wild-type Ysc84-Nt; source: E. coli BL21 DE3, purified (HisTrap HP nickel column)
Usually Kd stands for the free concentration of one partner at which half of the binding sites on the other are occupied at equilibrium, for simple one-to-one binding. In turn, B1 had a dissociation constant Kd of 850 nM.
